B1: GSTS6 (GSTs6) (Spodoptera littoralis) (protein)
chain: MPKKLSYFNLNGLAEPIRYILHYTNQEFEDVRYDVYSWPDPKIKASLPYGQFPVYEEDGRVLTQSLAITKYVARGTDLVPTDPWDNAFIESVIFSIMDYWKNVVPTVREPDPAKYTELRNEIIEKNIPYYFSRFNKHLEDNGGFLNGKLSWGDFVFCGVIEASDMFLGIELSKDYPAVGSLVQHIRNLPGVKEYVKSIGPYTIDLARFKYKK
notes: cytosolic sigma class
B2: GSTE14 (GSTe14) (Spodoptera littoralis) (protein)
chain: MGVKLYVMDFSPPSRACMLTCEIFGIPFEKIPVDLFKGEHLAPNYLQKNPLHTIPVLEDGDLILYDSHAIMAYLADTYGKDESWYPKDVKKRALVNQKLFFNTAVIYRRLRNITYYVFQRGRKTLEQDWLDDIAEGYGFLEAFLSKTKYIAGDHITIADIAILSHLTNLEYILPIDAKKYPKTSAWLEDFKATPYAKKHNEEGAKALNDLLKKFLTS
notes: cytosolic epsilon class

Assays:
[1] = substrate: C=CCN=C=S; assay: purified protein; format: biochemical, Spodoptera littoralis; conditions: 4 mM GSH (saturating), 100 mM potassium phosphate pH 6.5, 25 °C, 2.4% acetonitrile
[2] = substrate: S=C=NCc1ccccc1; assay: purified protein; format: biochemical, Spodoptera littoralis; conditions: 4 mM GSH (saturating), 100 mM potassium phosphate pH 6.5, 25 °C, 2.4% acetonitrile

| Protein | Km [1] | Vmax [1] | kcat [1] | kcat/Km [1] | Km [2] | Vmax [2] | kcat [2] | kcat/Km [2] |
| --- | --- | --- | --- | --- | --- | --- | --- | --- |
| B1 | 567.11 ± 131.85 µM | 39.3 µmol/min/mg | 16.1 ± 2.28 s⁻¹ | 28400 ± 4020 M⁻¹ s⁻¹ | 98.24 ± 21.15 µM | 52.7 µmol/min/mg | 21.6 ± 1.46 s⁻¹ | 220000 ± 14900 M⁻¹ s⁻¹ |
| B2 | 124.10 ± 15.66 µM | 89.4 µmol/min/mg | 37.4 ± 1.85 s⁻¹ | 302000 ± 14900 M⁻¹ s⁻¹ | 185.37 ± 89.77 µM | 47.3 µmol/min/mg | 19.8 ± 3.35 s⁻¹ | 107000 ± 37300 M⁻¹ s⁻¹ |
